The term % Inhibition denotes the drop in the measured response relative to a control, in per cent. Read a low % Inhibition as little suppression.

In this assay the test system is human hepatoma SMMC-7721 xenografts. Description: rSIFN-co on human hepatoma SMMC-7721 xenografts in nude mice. The following applies: for TV(mm^3, mean ± SD) (D 0): day 0; for % Inhibition / T/C (%) / TV(mm^3, mean ± SD) (D 21): day 21. In general terms: Xenograft models place foreign cells or tissue in a host animal.
Where [1] appears, read: 0.05 mg/mouse i.t. every other day.
Setting [2] is: 0.10 mg/mouse i.t. every other day.
The mark [3] stands for this setting: 0.15 mg/mouse i.t. every other day.

Experimental: The test article was used without dilution. It was stored at 4° C. until thawed for injection.
The animals used were 4-6 weeks old male BALB/cA nu/nu mice, weighing about 23±2 g, obtained from the Shanghai Institute of Materia Medica (Shanghai, P.R. China). […] Animals were housed 6 to a cage. They were ear-marked with ear hole punch identification. The room temperature was maintained at 25° C.±+1° C. Lighting was set at 12 hr on and 12 hr off. Food was provided ad libitum. City tap water, filtered with a 5 micrometer (μm) filter, was provided to the animals ad libitum via water bottles.
The test article was administered in a volume of 0.05 ml-0.15 ml per mouse per treatment, depending on the group to which the animal was assigned. […] Normal saline was injected in a volume of 0.15 ml per mouse, which was used as vehicle control.
Animals were assigned to treatment groups randomly. Initially, all animals were placed in one large animal cage. For assignment to the study, they were later separately housed, with 6 animals per cage per treatment group. Groups 1 and 2 are Control groups in which the animals were each administered the vehicle every other day after the first treatment. […] Tumor growth was monitored by measuring the length and width of each tumor twice a week during the course of the study. Each animal was also weighed twice a week during the course of the study.
Before commencement of this study, the xenografts were passaged twice in nude mice. Under sterile conditions, well-grown tumors were cut into 1.5 mm^3 fragments and one such fragment was injected by trocar needle into the right flank of each study animal. […] Individual tumor size (length and width) was measured twice per week with microcalipers. Tumor volume (V) was calculated using the formula: V=(length×width^2)/2. Individual relative tumor volume (RTV) was calculated using the formula: RTV=Vt/V0, where Vt is the tumor volume on the day of measurement and V0 is the tumor volume on the day of first treatment. Therapeutic effect of the test article or control article was expressed in terms of T/C (%), using the formula: T/C (%)=(mean RTV of the treated group/mean RTV of the control group)×100%; and in terms of % Inhibition, using the formula: % Inhibition=100%−T/C %.

B1: rSIFN-co: Recombinant super-compound interferon; amino acid sequence SEQ ID NO: 1 (same as INFERGEN), encoded by novel nucleotide sequence SEQ ID NO: 2 (protein)
chain: MCDLPQTHSLGNRRALILLAQMRRISPFSCLKDRHDFGFPQEEFDGNQFQKAQAISVLHEMIQQTFNLFSTKDSSAAWDESLLEKFYTELYQQLNDLEACVIQEVGVEETPLMNVDSILAVKKYFQRITLYLTEKKYSPCAWEVVRAEIMRSFSLSTNLQERLRRKE
modifications: Amino acid sequence of recombinant interferon
Turning to B1, under setting [1], the “TV(mm^3, mean ± SD) (D 0)” value is given as 124 ± 26 mm^3; the “% Inhibition” value was found to be 48.01%; the “T/C (%)” value came out at 51.99%; the “TV(mm^3, mean ± SD) (D 21)” value was 592 ± 139 mm^3. Under setting [2], the “TV(mm^3, mean ± SD) (D 0)” value came to 124 ± 15 mm^3; the “% Inhibition” value amounted to 52.20%; the “T/C (%)” value is recorded as 47.80%; the “TV(mm^3, mean ± SD) (D 21)” value was 573 ± 287 mm^3. Further, under setting [3], the “TV(mm^3, mean ± SD) (D 0)” value was 123 ± 20 mm^3; the “% Inhibition” value turned out to be 56.80%; the “T/C (%)” value turned out to be 43.20%; the “TV(mm^3, mean ± SD) (D 21)” value was found to be 505 ± 226 mm^3.

These data come from US10877024B2, “Methods of determining interferon having direct inhibitory effects on tumors and uses thereof” (SUPERLAB FAR EAST LIMITED, priority 2015, dated 2020).
